Experiment [1] concerns the target T1, human PD-L1 on cells (human PD-L1-transfected CHO cells; IFNg-induced HT-1080 tumor cells) (human, UniProt Q9NZQ7 19-290).
T1 construct: whole, on cells; CHO transfectants are negative for human CD47; HT-1080 cells also carry CD47; also called hPD-L1-transfected CHO cells; PD-L1+CD47+ HT-1080
In words: inhibition of human PD-1-moFc binding to IFNg-induced PD-L1+CD47+ HT-1080 cells, CellInsight CX5.

The target of experiment [2] is T2, recombinant human PD-L2 soluble protein (biotinylated) (human, UniProt Q9BQ51 20-220, limits assumed, biotinylated).
T2 construct: Bought soluble protein
T2 sequence (looked up): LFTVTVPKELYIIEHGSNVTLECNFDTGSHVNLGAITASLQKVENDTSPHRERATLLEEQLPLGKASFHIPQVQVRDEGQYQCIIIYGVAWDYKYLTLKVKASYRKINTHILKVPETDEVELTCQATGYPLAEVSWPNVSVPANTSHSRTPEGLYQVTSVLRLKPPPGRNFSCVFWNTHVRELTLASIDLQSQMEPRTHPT
Kind of experiment: sandwich ELISA: antibody captured on coated anti-Fc, biotinylated recombinant human PD-L2 titrated, streptavidin-HRP/Amplex red fluorescence.

Experiment [3] has as its target T3, recombinant mouse PD-L1 soluble protein (biotinylated) (mouse, UniProt Q9EP73 19-239, limits assumed, biotinylated).
T3 construct: Two sources are named for the two assays
Kind of experiment: sandwich ELISA: antibody captured on coated anti-human Fc, biotinylated recombinant mouse PD-L1 titrated, streptavidin-HRP/Amplex red fluorescence.

For experiment [4], the target named is T4, recombinant human PD-L1 soluble protein (biotinylated) (human, UniProt Q9NZQ7 19-238, biotinylated).
T4 construct: Bought soluble protein; also called hPD-L1
In words: sandwich ELISA: antibody captured on coated anti-human Fc, biotinylated recombinant human PD-L1 titrated (x axis, nM), streptavidin-HRP/Amplex red fluorescence.

The target in experiment [5] is T5, recombinant cynomolgus monkey PD-L1 soluble protein (biotinylated) (cynomolgus monkey, UniProt G7PSE7 19-238, biotinylated (site not stated); vendor tag not carried in the letters).
T5 construct: Two suppliers are named for the two assays; also called Cyno PD-L1; cynomolgus PD-L1; not shown: vendor tag(s) of the recombinant proteins (Sino Biological; Acrobiosystems #PD1-052H4) and the biotin label
Kind of experiment: sandwich ELISA: antibody captured on coated anti-human Fc, biotinylated recombinant cynomolgus PD-L1 titrated (x axis, nM), streptavidin-HRP/Amplex red fluorescence.

For experiment [6], the target named is T4, recombinant human PD-L1 soluble protein …. In words: BLI (OctetRED96), biotinylated PD-L1 on streptavidin biosensors, bsAb in solution, 1:1 global fit, 30 °C.
The target in experiment [7] is T1, human PD-L1 on cells (human …). Kind of experiment: inhibition of human PD-1-moFc binding to human PD-L1-transfected CHO cells, CellInsight CX5.
Experiment [8] has as its target T3, recombinant mouse PD-L1 soluble protein …. In words: sandwich ELISA: antibody captured on coated anti-human Fc, biotinylated recombinant mouse PD-L1 titrated (x axis, nM), streptavidin-HRP/Amplex red fluorescence.
Experiment [9] deals with T6, human CD47 on cells (Raji, Nalm-6, HT-1080 tumor cells, human red blood cells) (human, UniProt Q08722 19-323).
T6 construct: whole, on cells; Raji, Nalm-6 and red blood cells carry no or very little PD-L1; HT-1080 carries both targets; also called IAP
In words: flow cytometry on human red blood cells (CD47+, PD-L1-), detection with AF647 anti-human Fc F(ab')2.

Experiment [10] has as its target T3, recombinant mouse PD-L1 soluble protein …. In words: BLI (OctetRED96), biotinylated mouse PD-L1 on streptavidin biosensors, bsAb in solution, 1:1 global fit, 30 °C.
Experiment [11] has as its target T5, recombinant cynomolgus monkey PD-L1 …. In words: BLI (OctetRED96), biotinylated cynomolgus PD-L1 on streptavidin biosensors, bsAb in solution, 1:1 global fit, 30 °C.

Results on ten molecules are retold here after US20220315654A1 (NOVIMMUNE, published 2022).

T1 sequence (Q9NZQ7 19-290): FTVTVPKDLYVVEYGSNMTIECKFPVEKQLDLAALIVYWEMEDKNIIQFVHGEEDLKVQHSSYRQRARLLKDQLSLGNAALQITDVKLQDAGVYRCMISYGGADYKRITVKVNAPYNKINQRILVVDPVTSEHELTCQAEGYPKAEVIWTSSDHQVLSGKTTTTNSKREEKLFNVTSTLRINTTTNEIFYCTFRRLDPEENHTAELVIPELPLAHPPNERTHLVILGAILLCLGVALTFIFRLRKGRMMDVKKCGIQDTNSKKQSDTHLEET
T5 sequence (G7PSE7 entry or part of it limits assumed): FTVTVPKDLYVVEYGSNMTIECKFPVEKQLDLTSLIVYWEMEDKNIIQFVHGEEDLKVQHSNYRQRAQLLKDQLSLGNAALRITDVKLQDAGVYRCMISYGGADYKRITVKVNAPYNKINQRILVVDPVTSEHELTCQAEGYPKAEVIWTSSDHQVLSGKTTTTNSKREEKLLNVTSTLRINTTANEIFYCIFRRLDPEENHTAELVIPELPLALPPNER
T4 sequence (Q9NZQ7 19-238 limits assumed): as the sequence (G7PSE7 entry or part of it limits assumed) above, with T33A, S34A, N62S, Q68R, R82Q, L173F, A185T, I192T, L215H counted along it
T3 sequence (Q9EP73 19-239 limits assumed): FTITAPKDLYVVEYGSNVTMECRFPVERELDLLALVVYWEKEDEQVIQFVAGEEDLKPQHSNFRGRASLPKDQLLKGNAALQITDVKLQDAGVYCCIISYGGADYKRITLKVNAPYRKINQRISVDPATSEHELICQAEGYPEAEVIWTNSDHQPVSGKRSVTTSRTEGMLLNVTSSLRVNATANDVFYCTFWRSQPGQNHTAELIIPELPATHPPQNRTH

B1: S100 anti-PD-L1 mAb (antibody, human IgG1, lambda, V domains shown)
VH: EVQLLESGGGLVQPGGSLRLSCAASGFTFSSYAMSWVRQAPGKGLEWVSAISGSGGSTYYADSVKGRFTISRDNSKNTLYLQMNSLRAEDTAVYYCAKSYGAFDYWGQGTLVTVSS
VL: QSVLTQPPSASGTPGQRVTISCSGSSSNIENKPVNWYQQLPGTAPKLLIYHDTTRPSGVPDRFSGSKSGTSASLAISGLQSEDEADYYCAAWDFATWPATEVFGGGTKLTVLG
notes: Bivalent monospecific anti-PD-L1 antibody; also called anti-PD-L1 mAb 5100
As for B1, the half-inhibitory concentration (IC50) in experiment [1] is 0.00084 nM. In addition, the results for the binding result in experiment [2] and in experiment [3] were “no binding (tested: about 40 nM PD-L2 protein)” and “no binding (tested: about 33 nM PD-L1 protein)”, respectively. In addition, the concentration giving a half-maximal response (EC50 (read off the curve)) was ~0.07 nM in [4] and ~0.03 nM in [5].

B2: K2×S93 CD47×PD-L1 bispecific antibody (bispecific antibody, human IgG1, kappa, lambda)
heavy: not shown
light 1: not shown
light 2: QSVLTQPPSASGTPGQRVTISCVSTSDHIAHKPVNWYQQLPGTAPKLLIYHDTSRPDGVPDRFSGSKSGTSASLAISGLQSEDEADYYCAAWDFATWPATEVFGGGTKLTVLGQPKAAPSVTLFPPSSEELQANKATLVCLISDFYPGAVTVAWKADSSPVKAGVETTTPSKQSNNKYAASSYLSLTPEQWKSHRSYSCQVTHEGSTVEKTVAPTECS
notes: also called K2xS93; K2×S93 bsAb
For the molecule B2, in experiment [6], the Kd is 0.7 nM.

B3: K2×S94 CD47×PD-L1 bispecific antibody (bispecific antibody, human IgG1, kappa, lambda)
heavy: not shown
light 1: not shown
light 2: QSVLTQPPSASGTPGQRVTISCISGSVDIAHKPVNWYQQLPGTAPKLLIYHDTSTPDGVPDRFSGSKSGTSASLAISGLQSEDEADYYCAAWDFATWPATEVFGGGTKLTVLGQPKAAPSVTLFPPSSEELQANKATLVCLISDFYPGAVTVAWKADSSPVKAGVETTTPSKQSNNKYAASSYLSLTPEQWKSHRSYSCQVTHEGSTVEKTVAPTECS
notes: also called K2xS94; S94 bsAb
B3: in [7], the 50% inhibitory concentration (IC50) amounted to 0.05 nM. The dissociation constant Kd in experiment [6] was 0.7 nM. In [3], the binding result is “no binding (tested: about 33 nM PD-L1 protein)”. For the same molecule, the half-maximal effective concentration (EC50 (read off the curve)) was ~0.07 nM in experiment [4] and ~0.03 nM in experiment [5].

B4: K2×S96 CD47×PD-L1 bispecific antibody (bispecific antibody, human IgG1, kappa, lambda)
heavy: not shown
light 1: not shown
light 2: QSVLTQPPSASGTPGQRVTISCNLPSADIAHKPVNWYQQLPGTAPKLLIYHDTSVVTGVPDRFSGSKSGTSASLAISGLQSEDEADYYCAAWDFATWPATEVFGGGTKLTVLGQPKAAPSVTLFPPSSEELQANKATLVCLISDFYPGAVTVAWKADSSPVKAGVETTTPSKQSNNKYAASSYLSLTPEQWKSHRSYSCQVTHEGSTVEKTVAPTECS
notes: also called K2xS96; K2×S96 bsAb
For B4, the dissociation constant (Kd) in experiment [6] came to 0.8 nM.

B5: S79 anti-PD-L1 mAb (antibody, human IgG1, lambda, V domains shown)
VH: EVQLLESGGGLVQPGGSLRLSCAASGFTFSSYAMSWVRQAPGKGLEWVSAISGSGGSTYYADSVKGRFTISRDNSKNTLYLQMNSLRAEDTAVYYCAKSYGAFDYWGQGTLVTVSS
VL: QSALTQPASVSGSPGQSITISCTGTSSDVFRPPLVSWYQQHPGKAPKLMIYFASLRPSGVSNRFSGSKSGNTASLTISGLQAEDEADYYCSSWDHTGDGHVFGGGTKLTVLG
notes: Bivalent monospecific IgG1 anti-PD-L1 antibody; also called S79_Sc3_1G7_VLCL2 aPDL1 IGLV2-23; anti-PD-L1 mAb S79
B5 returned an IC50 in experiment [1] of 0.00252 nM. In addition, the binding result in experiment [2] was “no binding (tested: about 40 nM PD-L2 protein)”. Besides, the half-maximal effective concentration (EC50 (read off the curve)) in experiment [4] is ~0.07 nM; in [8], ~0.03 nM; in experiment [5], ~0.03 nM.

B6: K2×S15 CD47×PD-L1 bispecific antibody (bispecific antibody, human IgG1, kappa, lambda)
heavy: not shown
light 1: not shown
light 2: QSALTQPASVSGSPGQSITISCTGTSSDVVKNNFVSWYQQHPGKAPKLMIYFGSVRPSGVSNRFSGSKSGNTASLTISGLQAEDEADYYCSSWDEPDRPFGGGTKLTVLGQPKAAPSVTLFPPSSEELQANKATLVCLISDFYPGAVTVAWKADSSPVKAGVETTTPSKQSNNKYAASSYLSLTPEQWKSHRSYSCQVTHEGSTVEKTVAPTECS
notes: also called K2xS15; K2×S15 bsAb
On to B6, for which the Kd in experiment [6] was determined as 3 nM.

B7: K2×S58 CD47×PD-L1 bispecific antibody (bispecific antibody, human IgG1, kappa, lambda)
heavy: not shown
light 1: not shown
light 2: QSALTQPASVSGSPGQSITISCNSPSSDVVKNNFVSWYQQHPGKAPKLMIYFGSVTGPGVSNRFSGSKSGNTASLTISGLQAEDEADYYCSSWDEPDRPFGGGTKLTVLGQPKAAPSVTLFPPSSEELQANKATLVCLISDFYPGAVTVAWKADSSPVKAGVETTTPSKQSNNKYAASSYLSLTPEQWKSHRSYSCQVTHEGSTVEKTVAPTECS
notes: also called K2xS58; K2×S58 bsAb
In the case of B7, the equilibrium dissociation constant (Kd) in [6] came to 0.83 nM.

B8: S46 bsAb (bispecific antibody, human IgG1, kappa, lambda)
common heavy chain: not shown
kappa light chain (anti-CD47 K2): not shown
lambda light chain (anti-PD-L1 S46): QSALTQPASVSGSPGQSITISCTGTSSDVLRPPLVSWYQQHPGKAPKLMIYFASLRPSGVSNRFSGSKSGNTASLTISGLQAEDEADYYCSSWDNAGDGHVFGGGTKLTVLGQPKAAPSVTLFPPSSEELQANKATLVCLISDFYPGAVTVAWKADSSPVKAGVETTTPSKQSNNKYAASSYLSLTPEQWKSHRSYSCQVTHEGSTVEKTVAPTECS
notes: also called K2xS46 CD47xPD-L1 bispecific antibody; K2xS46
Regarding B8, the 50% effective concentration (EC50 (read off the curve)) was ~0.1 nM in experiment [4], ~0.07 nM in experiment [8] and ~0.6 nM in experiment [5].

B9: K2×S23 CD47×PD-L1 bispecific antibody (bispecific antibody, human IgG1, kappa, lambda)
heavy: not shown
light 1: not shown
light 2: QSALTQPASVSGSPGQSITISCTGTSSDVAKIPLVSWYQQHPGKAPKLMIYFASLRPSGVSNRFSGSKSGNTASLTISGLQAEDEADYYCSSWDNAGDGHVFGGGTKLTVLGQPKAAPSVTLFPPSSEELQANKATLVCLISDFYPGAVTVAWKADSSPVKAGVETTTPSKQSNNKYAASSYLSLTPEQWKSHRSYSCQVTHEGSTVEKTVAPTECS
notes: also called K2xS23; K2×S23 bsAb
As for B9, the dissociation constant Kd in [6] worked out at 0.92 nM. Further, the binding result in experiment [9] was “binds”; in experiment [2], “no binding (tested: about 40 nM PD-L2 protein)”; in experiment [8], “binds”. For the same molecule, the “EC50 (read off the curve)” value in experiment [4] was ~0.1 nM.

B10: K2×S79 CD47×PD-L1 bispecific antibody (bispecific antibody, human IgG1, kappa, lambda)
heavy: not shown
light 1: not shown
light 2: QSALTQPASVSGSPGQSITISCTGTSSDVFRPPLVSWYQQHPGKAPKLMIYFASLRPSGVSNRFSGSKSGNTASLTISGLQAEDEADYYCSSWDHTGDGHVFGGGTKLTVLGQPKAAPSVTLFPPSSEELQANKATLVCLISDFYPGAVTVAWKADSSPVKAGVETTTPSKQSNNKYAASSYLSLTPEQWKSHRSYSCQVTHEGSTVEKTVAPTECS
notes: also called K2xS79; S79 bsAb
Take B10: in experiment [7], the concentration for half-maximal inhibition (IC50) was 0.03 nM. Moreover, the Kd is 0.5 nM in experiment [6], 0.52 nM in [10] and 1.35 nM in experiment [11]. Besides, the binding result in [2] is reported as “no binding (tested: about 40 nM PD-L2 protein)”. The “EC50 (read off the curve)” value in experiment [4] is ~0.07 nM; in [8], ~0.03 nM; in experiment [5], ~0.03 nM.
